Active and inactive are the calls of the source. No cut-off for these calls is given here.

The target of series [1] is T1, UMP-CMP kinase (Homo sapiens) (UniProt P30085).
T1 sequence (whole entry): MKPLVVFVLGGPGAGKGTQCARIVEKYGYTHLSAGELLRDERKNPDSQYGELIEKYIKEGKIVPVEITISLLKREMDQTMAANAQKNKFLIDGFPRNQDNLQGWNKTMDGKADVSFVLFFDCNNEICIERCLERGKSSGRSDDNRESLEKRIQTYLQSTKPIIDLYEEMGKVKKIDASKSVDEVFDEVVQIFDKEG
In words: Activity at human recombinant UMP-CMP kinase.

Series [2] concerns Nc1ccn([C@@H]2O[C@@]3(CO)CO[C@H]3C2(F)F)c(=O)n1. In words: (§1) Activity at human recombinant deoxycytidine kinase expressed in HepG2 cells. Format: cell-based.
Series [3] concerns Nc1ccn([C@@H]2O[C@@]3(CO)CO[C@H]3[C@@H]2F)c(=O)n1. The description is as §1. The class given is cell-based.
In series [4] the test system is Nc1ccn([C@@H]2O[C@@]3(CO)CO[C@H]3[C@H]2F)c(=O)n1. The series is described as §1. The class given is cell-based.
In series [5] the test system is Nc1ccn([C@@H]2O[C@@]3(CO)CO[C@H]3C2(F)F)c(=O)n1. The series is described as follows: (§2) Ratio of Kcat/Km for human recombinant deoxycytidine kinase.
Series [6] relates to Nc1ccn([C@@H]2O[C@@]3(CO)CO[C@H]3[C@@H]2F)c(=O)n1. The series is described as §2.
In series [7] the test system is Nc1ccn([C@@H]2O[C@@]3(CO)CO[C@H]3[C@H]2F)c(=O)n1. Described as §2.

Chain of Deoxycytidine kinase (Homo sapiens), P27707 (P27707 whole entry): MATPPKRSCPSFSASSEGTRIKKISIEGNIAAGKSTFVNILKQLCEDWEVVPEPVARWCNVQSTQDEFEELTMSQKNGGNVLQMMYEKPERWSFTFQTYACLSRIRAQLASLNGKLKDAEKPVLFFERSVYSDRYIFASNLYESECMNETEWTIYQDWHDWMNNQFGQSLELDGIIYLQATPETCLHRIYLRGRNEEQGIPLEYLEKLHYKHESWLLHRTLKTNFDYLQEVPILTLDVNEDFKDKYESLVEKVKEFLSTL

Regarding `Nc1ccn([C@@H]2O[C@@]3(CO)CO[C@H]3C2(F)F)c(=O)n1`, in series [1], the result was inactive.

As to `Nc1ccn([C@@H]2O[C@@]3(CO)CO[C@H]3[C@@H]2F)c(=O)n1`, the result in series [1] was inactive.

For `Nc1ccn([C@@H]2O[C@@]3(CO)CO[C@H]3[C@H]2F)c(=O)n1`, in series [1], the outcome was inactive.

By Km is commonly meant the concentration of substrate that gives half-maximal velocity. The term kcat denotes the maximal rate divided by the concentration of active sites. Consider “Deoxycytidine kinase (Homo sapiens), P27707”, for which the Km was 27.6 µM in series [2], 81.1 µM in series [3] and 61 µM in series [4]. The kcat in series [2] came out at 0.0599 s⁻¹; in series [3] it was 0.122 s⁻¹; in series [4] it was 0.0214 s⁻¹. For the same molecule, the kcat/Km (10'-3/microM/s) in series [5] turned out to be 2.2; in series [6] it was 1.5. The kcat/Km in series [7] came out at 3.5 ×10⁻⁴ /µM/s.

The values are drawn from ChEMBL document CHEMBL1208712, “Synthesis and anti-HCV activity of 3',4'-oxetane nucleosides” (Bioorg Med Chem Lett, 2010).
